# According to paper PMC7292962 (Biochemistry, 2019):
# Read-outs that look alike come from different tables or passages of the source.
# Tests used:
# Test in all cases: AUC
# [1] = target: the molecule itself
# [2] = target: the molecule itself; remark: listed apart in the source
# [3] = target: the molecule itself; remark: listed apart in the source
# [4] = target: the molecule itself; remark: listed apart in the source
protein,measurement,setting,value
"S100A12 (natural protein, human) TKLEEHLEGIVNIFHQYSVRKGHFDTLSKGELKQLLTKELANTIKNIKDKAVIDEIFQGLDANQDEQVDFQEFISLVAIALKAAHYHTHKE",stoichiometry N,[1],2
same,Kd,[2],4590 µM
same,Kd,[3],56.7 µM
same,Kd,[4],13.2 µM
